# Measurements from patent US20250250357A1 (NANJING ZAIMING PHARMACEUTICAL, published 2025).
# How the values were obtained:
# [1] = target: T1, human MSLN-R3-3 polypeptide (human); assay: ELISA, coated antigen; antibody 0.1 nM
# T1 construct: also called human MSLN-R3-3 protein; hMSLN-R3-3
# Protocol: (§1) The plate was sealed with a plastic film and incubated at 4° C. overnight. The next day, the plate was washed twice with PBST, and a blocking buffer [PBS+2% (w/w) BSA] was added for blocking at room temperature for 2 h. The blocking buffer was discarded, and a chimeric antibody or negative control antibody serially diluted from 100 nM was added at 50 μL/well. After incubation at 37° C. for 2 h, the plate was washed 3 times with PBST. […] After incubation at 37° C. for 2 h, the plate was washed 5 times with PBST. A TMB substrate was added at 50 μL/well for incubation at room temperature for 5-10 min, and then a stop solution (1.0 N HCl) was added at 50 μL/well.
# [2] = target: T2, human MSLN-R2-his protein (human, UniProt Q13421 391-486); assay: ELISA, coated antigen; antibody 0.01 nM
# T2 construct: also called human MSLN-R2 protein; hMSLN-R2-his; not shown: His tag
# T2 sequence (Q13421 other isoform, or with tags, fused parts or gaps): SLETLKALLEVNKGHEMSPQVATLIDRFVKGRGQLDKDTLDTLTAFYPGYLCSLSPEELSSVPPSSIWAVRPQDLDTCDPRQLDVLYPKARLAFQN
# [3] = target: T3, human MSLN-R3-his protein (human, UniProt Q13421 487-598); assay: ELISA, coated antigen; antibody 0.1 nM
# T3 construct: also called human MSLN-R3 protein; hMSLN-R3-his; not shown: His tag
# T3 sequence (Q13421 495-606): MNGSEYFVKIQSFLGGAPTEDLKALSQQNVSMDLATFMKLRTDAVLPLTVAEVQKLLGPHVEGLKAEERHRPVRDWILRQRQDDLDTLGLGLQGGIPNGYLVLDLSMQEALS
# [4] = target: T2, human MSLN-R2-his protein; assay: ELISA, coated antigen; antibody 0.0001 nM
# Protocol: as §1
# [5] = target: T1, human MSLN-R3-3 polypeptide; assay: ELISA, coated antigen; antibody 1 nM
# Protocol: as §1
# [6] = target: T1, human MSLN-R3-3 polypeptide; assay: ELISA, coated antigen; antibody 100 nM
# Protocol: as §1
# [7] = target: T2, human MSLN-R2-his protein; assay: ELISA, coated antigen; antibody 10 nM
# Protocol: as §1
# [8] = target: T3, human MSLN-R3-his protein; assay: ELISA, coated antigen; antibody 0.001 nM
# Protocol: as §1
# [9] = target: T2, human MSLN-R2-his protein; assay: ELISA, coated antigen; antibody 100 nM
# Protocol: as §1
# [10] = target: T1, human MSLN-R3-3 polypeptide; assay: ELISA, coated antigen; antibody 0.01 nM
# Protocol: as §1
# [11] = target: T1, human MSLN-R3-3 polypeptide; assay: ELISA, coated antigen; antibody 0.0001 nM
# Protocol: as §1
# [12] = target: T2, human MSLN-R2-his protein; assay: ELISA, coated antigen; no antibody (blank, column 'none')
# Protocol: as §1
# [13] = target: T2, human MSLN-R2-his protein; assay: ELISA, coated antigen; antibody 0.1 nM
# Protocol: as §1
# [14] = target: T2, human MSLN-R2-his protein; assay: ELISA, coated antigen; antibody 1 nM
# Protocol: as §1
# [15] = target: T2, human MSLN-R2-his protein; assay: ELISA, coated antigen; antibody 0.001 nM
# Protocol: as §1
# [16] = target: T1, human MSLN-R3-3 polypeptide; assay: ELISA, coated antigen; no antibody (blank, column 'none')
# Protocol: as §1
# [17] = target: T3, human MSLN-R3-his protein; assay: ELISA, coated antigen; antibody 100 nM
# Protocol: as §1
# [18] = target: T3, human MSLN-R3-his protein; assay: ELISA, coated antigen; antibody 10 nM
# Protocol: as §1
# [19] = target: T3, human MSLN-R3-his protein; assay: ELISA, coated antigen; antibody 0.0001 nM
# Protocol: as §1
# [20] = target: T1, human MSLN-R3-3 polypeptide; assay: ELISA, coated antigen; antibody 10 nM
# Protocol: as §1
# [21] = target: T3, human MSLN-R3-his protein; assay: ELISA, coated antigen; no antibody (blank, column 'none')
# Protocol: as §1
# [22] = target: T1, human MSLN-R3-3 polypeptide; assay: ELISA, coated antigen; antibody 0.001 nM
# Protocol: as §1
# [23] = target: T3, human MSLN-R3-his protein; assay: ELISA, coated antigen; antibody 1 nM
# Protocol: as §1
# [24] = target: T3, human MSLN-R3-his protein; assay: ELISA, coated antigen; antibody 0.01 nM
# Protocol: as §1
OD450 [1] [OD450],OD450 [2] [OD450],OD450 [3] [OD450],OD450 [4] [OD450],OD450 [5] [OD450],OD450 [6] [OD450],OD450 [7] [OD450],OD450 [8] [OD450],OD450 [9] [OD450],OD450 [10] [OD450],OD450 [11] [OD450],OD450 [12] [OD450],OD450 [13] [OD450],OD450 [14] [OD450],OD450 [15] [OD450],OD450 [16] [OD450],OD450 [17] [OD450],OD450 [18] [OD450],OD450 [19] [OD450],OD450 [20] [OD450],Binder,also measured
0.08,0.11,1.47,0.07,0.08,0.32,0.18,0.12,0.13,0.08,0.07,0.08,0.18,0.21,0.06,0.07,2.05,1.85,0.08,0.1,"S009-F3.38.10 (antibody, human IgG1, kappa, V domains shown, Human-murine chimeric antibody, human IgG1/kappa constant regions) VH: EVQLQQSGPVLVKPGASVKMSCEASGYIFTDYYMNWVKKSHGKSLEWIGVINPKNGVISHNQKFKGKATLTVDKSSNTAYMELSSLTSEDSAVYYCANYGSRFYAMDYWGQGTSVTVSS VL: DVVMTQTPLSLPVSLGDQASISCRSSQSLIHSDGNTYLQWYLQKSGQSPKLLIYKVSNRFSGVPDRFSGSGSGTDFTLKISRVETEDLGVYFCSQTTHVPFTFGSGTKLEIKR",OD450 [21]: 0.09 OD450; OD450 [22]: 0.08 OD450; OD450 [23]: 1.71 OD450; OD450 [24]: 0.41 OD450
1.47,0.07,1.55,0.07,1.84,1.93,0.17,0.12,0.06,0.55,0.08,0.07,0.06,0.06,0.06,0.08,2.02,1.88,0.08,1.91,"S009-F3.80.22 (antibody, human IgG1, kappa, V domains shown, Human-murine chimeric antibody, human IgG1/kappa constant regions) VH: QVQLQQSGAELVRPGASVTLSCKASGYTFTDYEIHWVKQTPVHGLEWIGAFDPEIGGSAYNQKFKDRATLTADKSSSTAYMELHSLTAEDSAVYYCTDYYGSSSGYFDVWGTGTTVTVSS VL: DVVMTQTPLSLPVSLGDQASISCRSSQSLEHNNGNTYLHWFLHKPGQSPKLLIYKVSNRFSGVPDRFSGSGSGTDFTLKISRVEAEDLGVYFCSQSTHVPFTFGSGTKLEIKR",OD450 [21]: 0.08 OD450; OD450 [22]: 0.15 OD450; OD450 [23]: 1.91 OD450; OD450 [24]: 0.51 OD450
0.96,0.06,1.07,0.06,1.83,2.07,0.17,0.1,0.09,0.21,0.07,0.07,0.06,0.09,0.06,0.07,2.06,1.83,0.07,1.9,"S009-F3.74.20 (antibody, human IgG1, kappa, V domains shown, Human-murine chimeric antibody, human IgG1/kappa constant regions) VH: RVQLQQSGAELVRPGASVTLSCKASGYTFTDSEMHWVKQTPVHGLEWIGAIDPEIDGTAYNQNFRDKAILTADKSSSTAYMELRSLTSEDSAVYYCTTYFGSGYGYFDVWGTGTTVTVSS VL: DVVMTQTPLSLSVSLGDQASISCRSSQSLVYSNGNTYLHWFLQKPGQSPKLLIYKVSNRFSGVPDRFSGSGSGTDFTLKINRVEAEDLGVYFCSQSTHIPFTFGAGTKLELKR",OD450 [21]: 0.09 OD450; OD450 [22]: 0.09 OD450; OD450 [23]: 1.88 OD450; OD450 [24]: 0.29 OD450

# More lines, now with the values behind:
Binder,OD450 [1] [OD450],OD450 [2] [OD450],OD450 [3] [OD450],OD450 [4] [OD450],OD450 [5] [OD450],OD450 [6] [OD450],OD450 [7] [OD450],OD450 [8] [OD450],OD450 [9] [OD450],OD450 [10] [OD450],OD450 [11] [OD450],OD450 [12] [OD450],OD450 [13] [OD450],OD450 [14] [OD450],OD450 [15] [OD450],OD450 [16] [OD450],OD450 [17] [OD450],OD450 [18] [OD450],OD450 [19] [OD450],OD450 [20] [OD450],also measured
"S009-F3.7.3 (antibody, human IgG1, kappa, V domains shown, Human-murine chimeric antibody: murine VH/VL on human IgG1 heavy chain constant region and human kappa constant region) VH: EVNFEESGGGLVQPGGSMKLSCVASGFTFSNYWMNWVRQSPEKGLEWVAQIRLKSDNYATHYAESVKGRFTISRDDFKSSVYLQMNNLRAEDTGIYYCTVGTGGYWGQGTTLTVSS VL: DIVLTQSPASLAMSLGKRATISCRASESVSIVGTNVIHWFQQKPGQPPKLLIYHASNLETGVPARFSGSGSGTDFTLTIDPVEEDDVAIYHCLQSRKIPWTFGGGTKLEIKR",0.07,0.06,1.13,0.07,0.07,0.11,0.09,0.11,0.12,0.07,0.07,0.08,0.07,0.07,0.07,0.08,2.16,1.74,0.07,0.08,OD450 [21]: 0.08 OD450; OD450 [22]: 0.07 OD450; OD450 [23]: 1.63 OD450; OD450 [24]: 0.43 OD450
"S009-F3.16.1 (antibody, human IgG1, kappa, V domains shown, Human-murine chimeric antibody, human IgG1/kappa constant regions) VH: EVKFEESGGGLVQPGGSMKLSCVASGFTFSNYWMNWVRQSPEKGLEWVAQIRLKSDNYATHYAESVKGRFSISRDDSKSSVYLQMNNLRAEDTGIYYCSVGTGGYWGQGTTLTVSS VL: DIVLTQSPASLALSPGKRATISCRASESVSIIGTDVIHWFQQKPGQPPKLLIYHASNLETGVPARFSGSGSRTDFTLTIDPVEEDDVAIYYCLQSRKIPWTFGGGTKLEIKR",0.08,0.06,1.61,0.06,0.07,0.11,0.08,0.15,0.12,0.07,0.07,0.08,0.18,0.06,0.06,0.08,1.92,1.91,0.08,0.08,OD450 [21]: 0.09 OD450; OD450 [22]: 0.08 OD450; OD450 [23]: 1.8 OD450; OD450 [24]: 0.65 OD450
"S009-F3-63.5 (antibody, human IgG1, kappa, V domains shown, Human-murine chimeric antibody, human IgG1/kappa constant regions) VH: QVQLQQSGAELVRPGASVTLSCKASGYTFTDYEMHWVKQTPVHGLEWIGGIDPETGDTAYNQQFKGKAILTADRSSSTAYMELRSLTSEDSAVYYCTNYASSREDYWGQGTTLTVSS VL: not shown",1.46,0.05,1.43,0.06,1.75,2.3,0.07,0.1,0.09,0.4,0.07,0.07,0.05,0.05,0.05,0.07,2.36,1.98,0.06,1.95,OD450 [21]: 0.06 OD450; OD450 [22]: 0.1 OD450; OD450 [23]: 1.78 OD450; OD450 [24]: 0.41 OD450
